Data as given in patent US20230406885A1, “CYCLIC PEPTIDES FOR TRAPPING INTERLEUKIN-1 BETA” (MERCK SHARP & DOHME LLC, priority 2022, published 2023).
*1 amine or outer side, *2 acyl side, *3 side chain or, on linkers, in order; H or OH if unused. [ ]: non-standard residue; d: D form. TyrEtNAc = L-tyrosine O-ethyl acetamide, (S)-3-(4-(2-acetamidoethoxy)phenyl)-2-aminopropanoic acid, CC(=O)NCCOc1ccc(C[C@H](N[*:1])C(=O)[*:2])cc1; 3Pal4Ph4CO2H = (S)-4-(5-(2-amino-2-carboxyethyl)pyridin-2-yl)benzoic acid, O=C([C@H](Cc1ccc(-c2ccc(C(=O)[*:3])cc2)nc1)N[*:1])[*:2]; Pro(trans-4-NH2) = O=C([C@@H]1C[C@@H](N[*:3])CN1[*:1])[*:2]; Bip(4'-COOH) = N[C@@H](Cc1ccc(-c2ccc(C(=O)O)cc2)cc1)C(=O)O; 1Nal(3S-Me) = C[C@@H](c1cccc2ccccc12)[C@H](N)C(=O)O; hPhe(4-CF3) = N[C@@H](CCc1ccc(C(F)(F)F)cc1)C(=O)O; Ala(pyrimidin-5-yl) = N[C@@H](Cc1cncnc1)C(=O)O; Phe(4-COOH) = N[C@@H](Cc1ccc(C(=O)O)cc1)C(=O)O; Trp(7-aza) = N[C@@H](Cc1c[nH]c2ncccc12)C(=O)O; h3Pal(5-CN) = N#Cc1cncc(CC[C@H](N)C(=O)O)c1; hTyr = N[C@@H](CCc1ccc(O)cc1)C(=O)O; hPhe = N[C@@H](CCc1ccccc1)C(=O)O; dDab = NCC[C@@H](N)C(=O)O; dNMeA = CN[C@H](C)C(=O)O; Dab = NCC[C@H](N)C(=O)O; Dap = NC[C@H](N)C(=O)O; Aib = CC(C)(N)C(=O)O

B1: SEQ ID NO: 12 (peptide)
peptide: cyclo([Bip(4'-COOH)]W[Phe(4-COOH)]G[Pro(trans-4-NH2)][1Nal(3S-Me)]D[dNMeA]G[3Pal4Ph4CO2H]W[Dap][dA][hTyr])
SMILES: C[C@@H]1C(=O)NCC(=O)N[C@@H](Cc2ccc(-c3ccc(C(=O)O)cc3)nc2)C(=O)N[C@@H](Cc2c[nH]c3ccccc23)C(=O)N[C@@H](CN)C(=O)N[C@H](C)C(=O)N[C@@H](CCc2ccc(O)cc2)C(=O)N[C@@H](Cc2ccc(-c3ccc(C(=O)O)cc3)cc2)C(=O)N[C@@H](Cc2c[nH]c3ccccc23)C(=O)N[C@@H](Cc2ccc(C(=O)O)cc2)C(=O)NCC(=O)N2C[C@H](N)C[C@H]2C(=O)N[C@@H]([C@@H](C)c2cccc3ccccc23)C(=O)N[C@@H](CC(=O)O)C(=O)N1C
B2: SEQ ID NO: 116 (peptide)
peptide: cyclo([TyrEtNAc]W[Phe(4-COOH)]G[Pro(trans-4-NH2)][1Nal(3S-Me)]D[dNMeA]G[Bip(4'-COOH)]W[Dab][dA][hTyr])
SMILES: CC(=O)NCCOc1ccc(C[C@@H]2NC(=O)[C@H](CCc3ccc(O)cc3)NC(=O)[C@@H](C)NC(=O)[C@H](CCN)NC(=O)[C@H](Cc3c[nH]c4ccccc34)NC(=O)[C@H](Cc3ccc(-c4ccc(C(=O)O)cc4)cc3)NC(=O)CNC(=O)[C@@H](C)N(C)C(=O)[C@H](CC(=O)O)NC(=O)[C@H]([C@@H](C)c3cccc4ccccc34)NC(=O)[C@@H]3C[C@@H](N)CN3C(=O)CNC(=O)[C@H](Cc3ccc(C(=O)O)cc3)NC(=O)[C@H](Cc3c[nH]c4ccccc34)NC2=O)cc1
B3: SEQ ID NO: 111 (peptide)
peptide: cyclo([TyrEtNAc]W[Phe(4-COOH)]G[Pro(trans-4-NH2)][1Nal(3S-Me)]D[dNMeA]G[Bip(4'-COOH)]KS[dA][hPhe(4-CF3)])
SMILES: CC(=O)NCCOc1ccc(C[C@@H]2NC(=O)[C@H](CCc3ccc(C(F)(F)F)cc3)NC(=O)[C@@H](C)NC(=O)[C@H](CO)NC(=O)[C@H](CCCCN)NC(=O)[C@H](Cc3ccc(-c4ccc(C(=O)O)cc4)cc3)NC(=O)CNC(=O)[C@@H](C)N(C)C(=O)[C@H](CC(=O)O)NC(=O)[C@H]([C@@H](C)c3cccc4ccccc34)NC(=O)[C@@H]3C[C@@H](N)CN3C(=O)CNC(=O)[C@H](Cc3ccc(C(=O)O)cc3)NC(=O)[C@H](Cc3c[nH]c4ccccc34)NC2=O)cc1
B4: SEQ ID NO: 115 (peptide)
peptide: cyclo([TyrEtNAc]W[Phe(4-COOH)]G[Pro(trans-4-NH2)][1Nal(3S-Me)]D[dNMeA]G[Bip(4'-COOH)]W[Dab][dA][hPhe])
SMILES: CC(=O)NCCOc1ccc(C[C@@H]2NC(=O)[C@H](CCc3ccccc3)NC(=O)[C@@H](C)NC(=O)[C@H](CCN)NC(=O)[C@H](Cc3c[nH]c4ccccc34)NC(=O)[C@H](Cc3ccc(-c4ccc(C(=O)O)cc4)cc3)NC(=O)CNC(=O)[C@@H](C)N(C)C(=O)[C@H](CC(=O)O)NC(=O)[C@H]([C@@H](C)c3cccc4ccccc34)NC(=O)[C@@H]3C[C@@H](N)CN3C(=O)CNC(=O)[C@H](Cc3ccc(C(=O)O)cc3)NC(=O)[C@H](Cc3c[nH]c4ccccc34)NC2=O)cc1
B5: SEQ ID NO: 110 (peptide)
peptide: cyclo([TyrEtNAc]W[Phe(4-COOH)]G[Pro(trans-4-NH2)][1Nal(3S-Me)]D[dNMeA]G[Bip(4'-COOH)]KL[dA][hTyr])
SMILES: CC(=O)NCCOc1ccc(C[C@@H]2NC(=O)[C@H](CCc3ccc(O)cc3)NC(=O)[C@@H](C)NC(=O)[C@H](CC(C)C)NC(=O)[C@H](CCCCN)NC(=O)[C@H](Cc3ccc(-c4ccc(C(=O)O)cc4)cc3)NC(=O)CNC(=O)[C@@H](C)N(C)C(=O)[C@H](CC(=O)O)NC(=O)[C@H]([C@@H](C)c3cccc4ccccc34)NC(=O)[C@@H]3C[C@@H](N)CN3C(=O)CNC(=O)[C@H](Cc3ccc(C(=O)O)cc3)NC(=O)[C@H](Cc3c[nH]c4ccccc34)NC2=O)cc1
B6: SEQ ID NO: 11 (peptide)
peptide: cyclo([3Pal4Ph4CO2H]W[Phe(4-COOH)]G[Pro(trans-4-NH2)][1Nal(3S-Me)]D[dNMeA]G[Bip(4'-COOH)]W[Dap][dA][hTyr])
SMILES: C[C@@H]1C(=O)NCC(=O)N[C@@H](Cc2ccc(-c3ccc(C(=O)O)cc3)cc2)C(=O)N[C@@H](Cc2c[nH]c3ccccc23)C(=O)N[C@@H](CN)C(=O)N[C@H](C)C(=O)N[C@@H](CCc2ccc(O)cc2)C(=O)N[C@@H](Cc2ccc(-c3ccc(C(=O)O)cc3)nc2)C(=O)N[C@@H](Cc2c[nH]c3ccccc23)C(=O)N[C@@H](Cc2ccc(C(=O)O)cc2)C(=O)NCC(=O)N2C[C@H](N)C[C@H]2C(=O)N[C@@H]([C@@H](C)c2cccc3ccccc23)C(=O)N[C@@H](CC(=O)O)C(=O)N1C
B7: SEQ ID NO: 118 (peptide)
peptide: cyclo([TyrEtNAc]W[Phe(4-COOH)]G[Pro(trans-4-NH2)][1Nal(3S-Me)]D[dNMeA]G[Bip(4'-COOH)]W[Dap][dA]A)
SMILES: CC(=O)NCCOc1ccc(C[C@@H]2NC(=O)[C@H](C)NC(=O)[C@@H](C)NC(=O)[C@H](CN)NC(=O)[C@H](Cc3c[nH]c4ccccc34)NC(=O)[C@H](Cc3ccc(-c4ccc(C(=O)O)cc4)cc3)NC(=O)CNC(=O)[C@@H](C)N(C)C(=O)[C@H](CC(=O)O)NC(=O)[C@H]([C@@H](C)c3cccc4ccccc34)NC(=O)[C@@H]3C[C@@H](N)CN3C(=O)CNC(=O)[C@H](Cc3ccc(C(=O)O)cc3)NC(=O)[C@H](Cc3c[nH]c4ccccc34)NC2=O)cc1
B8: SEQ ID NO: 112 (peptide)
peptide: cyclo([TyrEtNAc]W[Phe(4-COOH)]G[Pro(trans-4-NH2)][1Nal(3S-Me)]D[dNMeA]G[Bip(4'-COOH)]KS[dA][hTyr])
SMILES: CC(=O)NCCOc1ccc(C[C@@H]2NC(=O)[C@H](CCc3ccc(O)cc3)NC(=O)[C@@H](C)NC(=O)[C@H](CO)NC(=O)[C@H](CCCCN)NC(=O)[C@H](Cc3ccc(-c4ccc(C(=O)O)cc4)cc3)NC(=O)CNC(=O)[C@@H](C)N(C)C(=O)[C@H](CC(=O)O)NC(=O)[C@H]([C@@H](C)c3cccc4ccccc34)NC(=O)[C@@H]3C[C@@H](N)CN3C(=O)CNC(=O)[C@H](Cc3ccc(C(=O)O)cc3)NC(=O)[C@H](Cc3c[nH]c4ccccc34)NC2=O)cc1
B9: SEQ ID NO: 117 (peptide)
peptide: cyclo([TyrEtNAc]W[Phe(4-COOH)]G[Pro(trans-4-NH2)][1Nal(3S-Me)]D[dNMeA]G[Bip(4'-COOH)]W[Dap][Aib][hTyr])
SMILES: CC(=O)NCCOc1ccc(C[C@@H]2NC(=O)[C@H](CCc3ccc(O)cc3)NC(=O)C(C)(C)NC(=O)[C@H](CN)NC(=O)[C@H](Cc3c[nH]c4ccccc34)NC(=O)[C@H](Cc3ccc(-c4ccc(C(=O)O)cc4)cc3)NC(=O)CNC(=O)[C@@H](C)N(C)C(=O)[C@H](CC(=O)O)NC(=O)[C@H]([C@@H](C)c3cccc4ccccc34)NC(=O)[C@@H]3C[C@@H](N)CN3C(=O)CNC(=O)[C@H](Cc3ccc(C(=O)O)cc3)NC(=O)[C@H](Cc3c[nH]c4ccccc34)NC2=O)cc1
B10: SEQ ID NO: 114 (peptide)
peptide: cyclo([TyrEtNAc]W[Phe(4-COOH)]G[Pro(trans-4-NH2)][1Nal(3S-Me)]D[dNMeA]G[Bip(4'-COOH)][Trp(7-aza)]G[dDab][h3Pal(5-CN)])
SMILES: CC(=O)NCCOc1ccc(C[C@@H]2NC(=O)[C@H](CCc3cncc(C#N)c3)NC(=O)[C@@H](CCN)NC(=O)CNC(=O)[C@H](Cc3c[nH]c4ncccc34)NC(=O)[C@H](Cc3ccc(-c4ccc(C(=O)O)cc4)cc3)NC(=O)CNC(=O)[C@@H](C)N(C)C(=O)[C@H](CC(=O)O)NC(=O)[C@H]([C@@H](C)c3cccc4ccccc34)NC(=O)[C@@H]3C[C@@H](N)CN3C(=O)CNC(=O)[C@H](Cc3ccc(C(=O)O)cc3)NC(=O)[C@H](Cc3c[nH]c4ccccc34)NC2=O)cc1
B11: SEQ ID NO: 119 (peptide)
peptide: cyclo([TyrEtNAc]W[Phe(4-COOH)]G[Pro(trans-4-NH2)][1Nal(3S-Me)]D[dNMeA]G[Bip(4'-COOH)]W[Dap][dA][hTyr])
SMILES: CC(=O)NCCOc1ccc(C[C@@H]2NC(=O)[C@H](CCc3ccc(O)cc3)NC(=O)[C@@H](C)NC(=O)[C@H](CN)NC(=O)[C@H](Cc3c[nH]c4ccccc34)NC(=O)[C@H](Cc3ccc(-c4ccc(C(=O)O)cc4)cc3)NC(=O)CNC(=O)[C@@H](C)N(C)C(=O)[C@H](CC(=O)O)NC(=O)[C@H]([C@@H](C)c3cccc4ccccc34)NC(=O)[C@@H]3C[C@@H](N)CN3C(=O)CNC(=O)[C@H](Cc3ccc(C(=O)O)cc3)NC(=O)[C@H](Cc3c[nH]c4ccccc34)NC2=O)cc1
B12: SEQ ID NO: 113 (peptide)
peptide: cyclo([TyrEtNAc]W[Phe(4-COOH)]G[Pro(trans-4-NH2)][1Nal(3S-Me)]D[dNMeA]G[Bip(4'-COOH)][Ala(pyrimidin-5-yl)]G[dDab][h3Pal(5-CN)])
SMILES: CC(=O)NCCOc1ccc(C[C@@H]2NC(=O)[C@H](CCc3cncc(C#N)c3)NC(=O)[C@@H](CCN)NC(=O)CNC(=O)[C@H](Cc3cncnc3)NC(=O)[C@H](Cc3ccc(-c4ccc(C(=O)O)cc4)cc3)NC(=O)CNC(=O)[C@@H](C)N(C)C(=O)[C@H](CC(=O)O)NC(=O)[C@H]([C@@H](C)c3cccc4ccccc34)NC(=O)[C@@H]3C[C@@H](N)CN3C(=O)CNC(=O)[C@H](Cc3ccc(C(=O)O)cc3)NC(=O)[C@H](Cc3c[nH]c4ccccc34)NC2=O)cc1

These binders were tested against Recombinant human IL-1β (BioLegend 579404) (human, UniProt P01584 117-269) (assay: cell-based or functional assay).
For B1, the “MRC5 IC50” value was 0.0551 nM. With B2 the “MRC5 IC50” value was 0.492 nM. In the case of B3, the “MRC5 IC50” value is reported as 0.133 nM. B4 was tested, and the “MRC5 IC50” value was 0.085 nM. With B5 the “MRC5 IC50” value was 0.196 nM. B6 was tested, and the “MRC5 IC50” value was 0.0908 nM. B7 was tested, and the “MRC5 IC50” value was 0.973 nM. In the case of B8, the “MRC5 IC50” value is reported as 0.0617 nM. B9 was tested, and the “MRC5 IC50” value was 0.16 nM. With B10 the “MRC5 IC50” value was 0.0233 nM. B11 was tested, and the “MRC5 IC50” value was 0.0602 nM. B12 was tested, and the “MRC5 IC50” value was 0.0918 nM.
